Reference: publication PMC5605434 (Nature chemical biology, 2017)
Blank lines part the entries; values can stand above or below the molecule they belong to.

How the values were obtained:
[1] = target: TPNOX (triphosphopyridine nucleotide oxidase), quintuple mutant of Lactobacillus brevis H2O-forming NADH oxidase (LbNOX) (Lactobacillus brevis)
[2] = target: T1, LbNOX (Levilactobacillus brevis, UniProt Q03Q85); assay: X-ray crystal structure; assay type: binding; conditions: NADH-soaked crystal; His-tag not cleaved
T1 sequence (Q03Q85 1-450): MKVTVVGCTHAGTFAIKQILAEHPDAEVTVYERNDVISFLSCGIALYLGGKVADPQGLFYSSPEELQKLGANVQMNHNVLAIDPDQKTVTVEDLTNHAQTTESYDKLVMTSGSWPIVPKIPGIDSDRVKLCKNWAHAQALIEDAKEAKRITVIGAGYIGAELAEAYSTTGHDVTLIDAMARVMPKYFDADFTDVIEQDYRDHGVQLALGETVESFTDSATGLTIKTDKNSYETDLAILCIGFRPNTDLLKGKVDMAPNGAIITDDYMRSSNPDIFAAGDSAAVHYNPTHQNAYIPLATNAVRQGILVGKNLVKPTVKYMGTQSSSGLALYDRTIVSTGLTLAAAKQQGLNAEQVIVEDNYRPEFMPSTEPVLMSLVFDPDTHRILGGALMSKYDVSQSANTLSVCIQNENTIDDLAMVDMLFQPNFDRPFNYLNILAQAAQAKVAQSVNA

[3] = substrate: NC(=O)C1=CN([C@@H]2O[C@H](COP(=O)(O)OP(=O)(O)OC[C@H]3O[C@@H](n4cnc5c(N)ncnc54)[C@H](OP(=O)(O)O)[C@@H]3O)[C@@H](O)[C@H]2O)C=CC1; assay: purified protein; conditions: 50 mM NaPi, pH 7.5, 150 mM NaCl, 37 °C, O2 as co-substrate

stoichiometry N [1]: 4
Molecule: TPNOX (triphosphopyridine nucleotide oxidase), quintuple mutant of Lactobacillus brevis H2O-forming NADH oxidase (LbNOX) (enzyme)

Molecule: Cc1cc2nc3c(=O)[nH]c(=O)nc-3n(C[C@H](O)[C@H](O)[C@H](O)COP(=O)(O)OP(=O)(O)OC[C@H]3O[C@@H](n4cnc5c(N)ncnc54)[C@H](O)[C@@H]3O)c2cc1C [FAD]
X-ray crystal structure [2]: can the nicotinamide ring of NADH come into proximity of FAD

B1: LbNOX (Levilactobacillus brevis ATCC 367) (protein)
chain: MKVTVVGCTHAGTFAIKQILAEHPDAEVTVYERNDVISFLSCGIALYLGGKVADPQGLFYSSPEELQKLGANVQMNHNVLAIDPDQKTVTVEDLTNHAQTTESYDKLVMTSGSWPIVPKIPGIDSDRVKLCKNWAHAQALIEDAKEAKRITVIGAGYIGAELAEAYSTTGHDVTLIDAMARVMPKYFDADFTDVIEQDYRDHGVQLALGETVESFTDSATGLTIKTDKNSYETDLAILCIGFRPNTDLLKGKVDMAPNGAIITDDYMRSSNPDIFAAGDSAAVHYNPTHQNAYIPLATNAVRQGILVGKNLVKPTVKYMGTQSSSGLALYDRTIVSTGLTLAAAKQQGLNAEQVIVEDNYRPEFMPSTEPVLMSLVFDPDTHRILGGALMSKYDVSQSANTLSVCIQNENTIDDLAMVDMLFQPNFDRPFNYLNILAQAAQAKVAQSVNA
Km [3]: 621 ± 124 µM
kcat [3]: 0.052 ± 0.001 s⁻¹
kcat/Km [3]: 83 ± 16 M⁻¹ s⁻¹
